The source of these data is article PMC4283134, “Nup98 FG domains from diverse species spontaneously phase-separate into particles with nuclear pore-like permselectivity” (eLife, 2015).

A value given as a limit tells only on which side of the number the result lay.

In data set [1] the target is Tetrahymena thermophila macronuclear MacNup98A FG domain (Tetrahymena thermophila). As to the kind of experiment: dynamic light scattering; FG domain diluted from stocks in 2 M GuHCl into TBS (50 mM Tris/HCl pH 7.5, 150 mM NaCl) to 10-0.06 µM; critical concentration of phase separation from the lowest concentration with particles, refined by the monomers that co-exist with particles.

Data set [2] addresses Saccharomyces cerevisiae Nup100 FG domain (residues 2-580, purified) (S. cerevisiae) (UniProt Q02629). As to the kind of experiment: partitioning into FG particles (confocal laser-scanning microscopy); FG particles formed from 5 or 10 µM purified FG domain (with labelled tracer) by dilution from GuHCl into TBS; 1 µM fluorescent NTR or NTR⋅cargo complex or 3 µM passive probe added; images about 2-3 min later.

The target of data set [3] is Branchiostoma floridae Nup98 FG domain (Branchiostoma floridae). As to the kind of experiment: dynamic light scattering; FG domain diluted from stocks in 2 M GuHCl into TBS (50 mM Tris/HCl pH 7.5, 150 mM NaCl) to 10-0.06 µM; critical concentration of phase separation from the lowest concentration with particles, refined by the monomers that co-exist with particles.
Data set [4] concerns the target Trypanosoma brucei Nup158 FG domain (Trypanosoma brucei). The description is as above.
Data set [5] deals with Dictyostelium discoideum Nup220 FG domain (Dictyostelium discoideum). The data set is described as above.
Data set [6] deals with Branchiostoma floridae Nup98 FG domain, O-GlcNAc modified (Branchiostoma floridae). The data set is described as above.
Data set [7] deals with the molecule itself. The description is as above.
For the next data set, the target named is T1, human Importin β (human, UniProt Q14974 1-876).
T1 construct: Importin β, human; also called HsImpβ; pICH005; source: E. coli (BLR or NEB Express), purified (native Ni(II) chelate chromatography, tag removed); not shown: His14, N-terminal, cleaved; scSUMO, N-terminal, cleaved
As to the kind of experiment: pull-down; His-tagged FG domains (30 µg each) immobilised on 30 µl PEG-passivated Ni(II) chelate beads; 1 µM untagged human Importin β (400 µl), 2 hr at 4°C; 25 mM Tris/HCl pH 7.5, 100 mM NaCl, 1 mM MgCl2, 0.5% PEG4000, 5 mM DTT; SDS-PAGE/Coomassie. The settings on record: both partners purified.

T1 sequence (Q14974 whole entry): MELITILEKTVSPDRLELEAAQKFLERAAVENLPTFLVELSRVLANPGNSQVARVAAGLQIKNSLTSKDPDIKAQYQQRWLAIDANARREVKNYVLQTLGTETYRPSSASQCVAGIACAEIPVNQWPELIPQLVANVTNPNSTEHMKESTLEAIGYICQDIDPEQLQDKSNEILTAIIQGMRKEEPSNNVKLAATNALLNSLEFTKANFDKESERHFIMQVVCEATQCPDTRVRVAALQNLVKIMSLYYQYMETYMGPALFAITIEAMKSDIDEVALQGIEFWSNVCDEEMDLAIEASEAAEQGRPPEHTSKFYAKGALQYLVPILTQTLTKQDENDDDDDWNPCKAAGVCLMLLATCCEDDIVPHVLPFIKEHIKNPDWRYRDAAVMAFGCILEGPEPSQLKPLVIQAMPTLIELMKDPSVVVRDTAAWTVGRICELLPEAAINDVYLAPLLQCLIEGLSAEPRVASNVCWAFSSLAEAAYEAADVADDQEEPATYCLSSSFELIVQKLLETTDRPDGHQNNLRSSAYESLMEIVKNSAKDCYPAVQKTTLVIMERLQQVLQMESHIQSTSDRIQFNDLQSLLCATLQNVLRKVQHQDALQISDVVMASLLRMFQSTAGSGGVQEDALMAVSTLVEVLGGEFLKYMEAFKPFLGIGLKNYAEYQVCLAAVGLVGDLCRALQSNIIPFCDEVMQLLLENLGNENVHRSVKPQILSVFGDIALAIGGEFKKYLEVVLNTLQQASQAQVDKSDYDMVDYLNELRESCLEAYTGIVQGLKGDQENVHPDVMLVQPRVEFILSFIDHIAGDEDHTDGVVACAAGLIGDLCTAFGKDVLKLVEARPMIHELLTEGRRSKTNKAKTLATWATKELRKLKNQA

“Tetrahymena thermophila macronuclear MacNup98A FG domain (domain or fragment)”: in data set [1], the estimated critical concentration for phase separation (FG domain) was 25 nM.
In turn, MBP-mCherry fusion yielded a particle:buffer partition coefficient in data set [2] of under 0.1.
In the case of “Branchiostoma floridae Nup98 FG domain (domain or fragment)”, in data set [3], the estimated critical concentration for phase separation (FG domain) is 20 nM.
“Trypanosoma brucei Nup158 FG domain (domain or fragment)”: the estimated critical concentration for phase separation (FG domain) in data set [4] is 300 nM.
“Dictyostelium discoideum Nup220 FG domain (domain or fragment)”: the estimated critical concentration for phase separation (FG domain) in data set [5] is 125 nM.
For the molecule “Branchiostoma floridae Nup98 FG domain, O-GlcNAc modified (domain or fragment)”, the estimated critical concentration for phase separation (FG domain) in data set [6] was 150 nM.

B1: Caenorhabditis elegans NPP-10/Nup98 FG domain (domain or fragment)
chain: MFGQNKSFGSSSFGGGSSGSGLFGQNNQNNQNKGLFGQPANNSGTTGLFGAAQNKPAGSIFGAASNTSSIFGSPQQPQNNQSSLFGGGQNNANRSIFGSTSSAAPASSSLFGNNANNTGTSSIFGSNNNAPSGGGLFGASTVSGTTVKFEPPISSDTMMRNGTTQTISTKHMCISAMSKYDGKSIEELRVEDYIANRKAPGTGTTSTGGGLFGASNTTNQAGSSGLFGSSNAQQKTSLFGGASTSSPFGGNTSTANTGSSLFGNNNANTSAASGSLFGAKPAGSSLFGSTATTGASTFGQTTGSSLFGNQQPQTNTGGSLFGNTQNQNQSGSLFGNTGTTGTGLFGQAQQQPQQQSSGFSFGGAPAATNAFGQPAAANTGGSLFGNTSTANTGSSLFGAKPATSTGFTFGATQPTTTNAFGSTNTGGGLFGNNAAKPGGLFGNTTNTGTGGGLFGSQPQASSGGLFGSNTQATQPLNTGFGNLAQPQIVMQQQC
notes: NPP-10/Nup98 FG domain, Caenorhabditis elegans, residues 1-493; engineered C-terminal cysteine; In particle assays a few percent of the molecules carried a fluorescent tracer label; also called CeNup98 FG; CeNup98; source: E. coli (BLR or NEB Express), purified (Ni(II) chelate, denaturing conditions); not shown: His18, N-terminal, kept
B1: the “estimated critical concentration for phase separation (FG domain)” value (shortened to “estimated critical concentration”) in data set [7] is about 700 nM. The binding result in the data set with human Importin β is given as “binds”.

B2: Drosophila melanogaster Nup98 FG domain (domain or fragment)
chain: MFGGAKPSFGATPAATSFGGFSGTTTTTPFGQSAFGKPAAPAFGNTSTFAAQPAQQSLFGAAATPAQPAGGLFGANTSTGFGSTATAQPTAFGAFSQPQQTSNIFGSTQTAASTSLFGQSTLPAFGAAKPTMTAFGQTAAAQPTGSLFGQPAAATSTTGFGGFGTSAPTTTNVFGSGTASAFAQPQATAVGASGVNTGTAVAKYQPTIGTDTLMKSGQANSVNTKQHCITAMKEFEGKSLEELRLEDYMCGRKGPQAGNAPGAFGFGAQVTQPAQPASGGLFGSTAQPSTGLFGQTVTENKSMFGTTAFGQQPATNNAFGAATQQNNFLQKPFGATTTTPFAAPAADASNPFGAKPAFGQGGSLFGQAPATSAAPAFGQTNTGFGGFGTTAGATQQSTLFGATPAADPNKSAFGLGTAASAATTGFGFGAPATSTAGGGLFGNKPATSFAAPTFGATSTASTPFSNFGLNTSTAATGGGLFNSGLNKPATSGFGGFGATSAAPLNFNAGNTGGSLFGNTAKPGGGLFGGGTTTLGGTGAAPTGGLFGGGTTSFGGVGGSLGGGGFGMGTNNSLTGGIMGAC
notes: Nup98 FG domain, Drosophila melanogaster, residues 1-580; engineered C-terminal cysteine; In particle assays a few percent of the molecules carried a fluorescent tracer label; also called DmNup98 FG; DmNup98; source: E. coli (BLR or NEB Express), purified (Ni(II) chelate, denaturing conditions); not shown: His18, N-terminal, kept
In the case of B2, in data set [7], the “estimated critical concentration” value is about 200 nM. Further, the binding result with human Importin β is “binds”.

B3: Homo sapiens Nup98 FG domain (domain or fragment, human)
chain: MFNKSFGTPFGGGTGGFGTTSTFGQNTGFGTTSGGAFGTSAFGSSNNTGGLFGNSQTKPGGLFGTSSFSQPATSTSTGFGFGTSTGTANTLFGTASTGTSLFSSQNNAFAQNKPTGFGNFGTSTSSGGLFGTTNTTSNPFGSTSGSLFGPSSFTAAPTGTTIKFNPPTGTDTMVKAGVSTNISTKHQCITAMKEYESKSLEELRLEDYQANRKGPQNQVGAGTTTGLFGSSPATSSATGLFSSSTTNSGFAYGQNKTAFGTSTTGFGTNPGGLFGQQNQQTTSLFSKPFGQATTTQNTGFSFGNTSTIGQPSTNTMGLFGVTQASQPGGLFGTATNTSTGTAFGTGTGLFGQTNTGFGAVGSTLFGNNKLTTFGSSTTSAPSFGTTSGGLFGNKPTLTLGTNTNTSNFGFGTNTSGNSIFGSKPAPGTLGTGLGAGFGTALGAGQASLFGNNQPKIGGPLGTGAFGAPGFNTTTATLGFGAPQAPVALTDPNASAAQQAC
notes: Nup98 FG domain, human, residues 1-499; engineered C-terminal cysteine; In particle assays a few percent of the molecules carried a fluorescent tracer label; also called HsNup98 FG; HsNup98; source: E. coli (BLR or NEB Express), purified (Ni(II) chelate, denaturing conditions); not shown: His18, N-terminal, kept
For B3, the “estimated critical concentration” value in data set [7] was about 25 nM. Also, the binding result with human Importin β is “binds”.

B4: Saccharomyces cerevisiae Nup116 FG domain without the GLEBS domain (domain or fragment, S. cerevisiae)
chain: FGVSRGAFPSATTQPFGSTGSTFGGQQQQQQPVANTSAFGLSQQTNTTQAPAFGNFGNQTSNSPFGMSGSTTANGTPFGQSQLTNNNASGSIFGGMGNNTALSAGSASFGTSQNGTGTTFNNPQGTTNTGFGIMGNNNSTTSATTGGLFGQKPATGMFGTGTGSGGGFGSGATNSTGLFGSSTNLSGNSAFGANKPATSGGLFGNTTNNPTNGTNNTGLFGQQNSNTNGGLFGQQQNSFGANNVSNGGAFGQVNRGAFPQQQTQQGSGGIFGQSNANANGGAFGQQQGTGALFGAKPASGGLFGQSAGSKAFGMNTNPTGTTGGLFGQTNQQQSGGGLFGQQQNSNAGGLFGQNNQSQNQSGLFGQQNSSNAFGQPQQQGGLFGSKPAGGLFGQQQGASTFASGNAQNNSIFGQNNQQQQSTGGLFGQQNNQSQSQPGGLFGQTNQNNNQPFGQNGLQQPQQNNSLFGAKPTGFGNTSLFSNSTTNQSNGISGNNLQQQSGGLFQNKQQPASGGLFGSKPSNTVGGGLFGNNQVANQNNPASTSGGLFGSKPATGSLFGGTNSTAPNASSGGIFGSNNASNTAATTNSTGLFGNKPVGAGASTSAGGLFGNNNNSSLNNSNGSTGLFGSNNTSQSTNAGGLFQNNTSTNTSGGGLFSC
notes: Nup116 FG domain, S. cerevisiae, residues 2-109 joined to 167-715 (GLEBS domain deleted); engineered C-terminal cysteine; In particle assays a few percent of the molecules carried a fluorescent tracer label; also called ScNup116_(ΔGLEBS) FG; ScNup116; source: E. coli (BLR or NEB Express), purified (Ni(II) chelate, denaturing conditions); not shown: His18, N-terminal, kept
Consider B4, for which, in data set [7], the “estimated critical concentration” value is about 700 nM.

B5: Saccharomyces cerevisiae Nup100 FG domain (residues 2-580, purified) (domain or fragment, S. cerevisiae)
chain: FGNNRPMFGGSNLSFGSNTSSFGGQQSQQPNSLFGNSNNNNNSTSNNAQSGFGGFTSAAGSNSNSLFGNNNTQNNGAFGQSMGATQNSPFGSLNSSNASNGNTFGGSSSMGSFGGNTNNAFNNNSNSTNSPFGFNKPNTGGTLFGSQNNNSAGTSSLFGGQSTSTTGTFGNTGSSFGTGLNGNGSNIFGAGNNSQSNTTGSLFGNQQSSAFGTNNQQGSLFGQQSQNTNNAFGNQNQLGGSSFGSKPVGSGSLFGQSNNTLGNTTNNRNGLFGQMNSSNQGSSNSGLFGQNSMNSSTQGVFGQNNNQMQINGNNNNSLFGKANTFSNSASGGLFGQNNQQQGSGLFGQNSQTSGSSGLFGQNNQKQPNTFTQSNTGIGLFGQNNNQQQQSTGLFGAKPAGTTGSLFGGNSSTQPNSLFGTTNVPTSNTQSQQGNSLFGATKLTNMPFGGNPTANQSGSGNSLFGTKPASTTGSLFGNNTASTTVPSTNGLFGNNANNSTSTTNTGLFGAKPDSQSKPALGGGLFGNSNSNSSTIGQNKPVFGGTTQNTGLFGATGTNSSAVGSTGKLFGQNNNTLNVGTC
notes: Nup100 FG domain, S. cerevisiae, residues 2-580; engineered C-terminal cysteine; In particle assays a few percent of the molecules carried a label (Atto390, Atto488 or Alexa488); also called ScNup100 FG; ScNup100; source: E. coli (BLR or NEB Express), purified (Ni(II) chelate, denaturing conditions); not shown: His18, N-terminal, kept
B5: the “estimated critical concentration” value in data set [7] is about 175 nM. Further, in the data set with human Importin β, the binding result is “binds”.

B6: Arabidopsis thaliana Nup98B FG domain (domain or fragment)
chain: MFGSSNNNPFGQSSISSPFGTQTHSLFGQTNNNASNNPFATKPFGTSTPFGAQTGSSMFGGTSTGVFGAPQTSSPFGASPQAFGSSTQAFGASSTPSFGSSNSPFGGTSTFGQKSFGLSTPQSSPFGSTTQQSQPAFGNSTFGSSTPFGASTTPAFGASSTPAFGVSNTSGFGATNTPGFGATNTTGFGGSSTPGFGASSTPAFGSTNTPAFGASSTPLFGSSSSPAFGASPAPAFGSSGNAFGNNTFSSGGAFGSSSTPTFGASNTSAFGASSSPSFNFGSSPAFGQSTSAFGSSSFGSTQSSLGSTPSPFGAQGAQASTSTFGGQSTIGGQQGGSRVIPYAPTTDTASGTESKSERLQSISAMPAHKGKNMEELRWEDYQRGDKGGQRSTGQSPEGAGFGVTNSQPSIFSTSPAFSQTPVNPTNPFSQTTPTSNTNFSPSFSQPTTPSFGQPTTPSFRSTVSNTTSVFGSSSSLTTNTSQPLGSSIFGSTPAHGSTPGFSIGGFNNSQSSPLFGSNPSFAQNTTPAFSQTSPLFGQNTTPALGQSSSVFGQNTNPALVQSNTFSTPSTGFGNTFSSSSSLTTSISPFGQITPAVTPFQSAQPTQPLGAFGFNNFGQTQIANTTDIAGAMGTFSQGNFKQQPALGNSAVMQPTPVTNPFGTLPALPQC
notes: Nup98B FG domain, Arabidopsis thaliana, residues 1-668; engineered C-terminal cysteine; In particle assays a few percent of the molecules carried a fluorescent tracer label; also called AtNup98B FG; AtNup98B; source: E. coli (BLR or NEB Express), purified (Ni(II) chelate, denaturing conditions); not shown: His14 (with TEV site), N-terminal, kept
Turning to B6, in data set [7], the “estimated critical concentration” value is about 25 nM. In the data set with human Importin β, the binding result is on record as “binds”.
